The source of these data is PMC3965691.

For the test, the target named is GST-Pin1 (human Pin1, full length, fused to GST) (human) (UniProt Q13526). In words: pull-down.
Chain of GST-Pin1 (human Pin1, full length, fused to GST) (human) (Q13526 whole entry, the tested form may be a part): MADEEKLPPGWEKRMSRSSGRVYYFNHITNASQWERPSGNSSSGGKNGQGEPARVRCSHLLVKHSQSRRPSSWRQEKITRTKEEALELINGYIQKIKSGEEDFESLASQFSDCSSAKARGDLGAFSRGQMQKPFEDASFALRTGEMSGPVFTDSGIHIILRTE

Consider “His6-DI-2 (Drosophila phosphatase inhibitor-2) (natural protein)”, for which the K0.5 was 0.3 µM.

Substance “His6-XI-2 (Xenopus phosphatase inhibitor-2) (natural protein)” gave a K0.5 of 0.3 µM.
